Laboratory results published in article PMC8673838, “MCPH1 inhibits Condensin II during interphase by regulating its SMC2-Kleisin interface” (eLife, 2021).
Non-standard residues stand in square brackets, D forms with d. No end group written: not given here. 5‑FAM = 5-carboxyfluorescein label; pS = N[C@@H](COP(=O)(O)O)C(=O)O

Experiments:
Details in all cases: both partners purified
[1] = molecular target: T1, human condensin II pentameric complex (SMC2, SMC4, NCAPH2, NCAPD3, NCAPG2) (human, UniProt O95347 1-1197; Q9NTJ3 1-1288; Q6IBW4 1-605; P42695 1-1498; Q86XI2 1-1143); assay: pull-down; strep-tagged condensin complexes (0.1 µM) with at least a 10-fold molecular excess of MBP MCPH1 constructs or MBP, Strep-tactin sepharose, 20 mM Tris pH 7.5, 150 mM NaCl, 10 % glycerol, 1 mM DTT; five washes; Coomassie or silver stain
T1 construct: SMC2, human, subunit of condensin II; SMC4, human, subunit of condensin II; NCAPH2, human, kleisin subunit of condensin II; NCAPD3 (CAP-D3), human, HAWK subunit of condensin II; NCAPG2 (CAPG2), human, HAWK subunit of condensin II; It says only 'strep-tagged condensin II'; also called pentameric condensin II; strep-tagged condensin II; source: insect cells, purified as previously described (Kong …)
T1 sequence (O95347 whole entry, chain 1 of 4): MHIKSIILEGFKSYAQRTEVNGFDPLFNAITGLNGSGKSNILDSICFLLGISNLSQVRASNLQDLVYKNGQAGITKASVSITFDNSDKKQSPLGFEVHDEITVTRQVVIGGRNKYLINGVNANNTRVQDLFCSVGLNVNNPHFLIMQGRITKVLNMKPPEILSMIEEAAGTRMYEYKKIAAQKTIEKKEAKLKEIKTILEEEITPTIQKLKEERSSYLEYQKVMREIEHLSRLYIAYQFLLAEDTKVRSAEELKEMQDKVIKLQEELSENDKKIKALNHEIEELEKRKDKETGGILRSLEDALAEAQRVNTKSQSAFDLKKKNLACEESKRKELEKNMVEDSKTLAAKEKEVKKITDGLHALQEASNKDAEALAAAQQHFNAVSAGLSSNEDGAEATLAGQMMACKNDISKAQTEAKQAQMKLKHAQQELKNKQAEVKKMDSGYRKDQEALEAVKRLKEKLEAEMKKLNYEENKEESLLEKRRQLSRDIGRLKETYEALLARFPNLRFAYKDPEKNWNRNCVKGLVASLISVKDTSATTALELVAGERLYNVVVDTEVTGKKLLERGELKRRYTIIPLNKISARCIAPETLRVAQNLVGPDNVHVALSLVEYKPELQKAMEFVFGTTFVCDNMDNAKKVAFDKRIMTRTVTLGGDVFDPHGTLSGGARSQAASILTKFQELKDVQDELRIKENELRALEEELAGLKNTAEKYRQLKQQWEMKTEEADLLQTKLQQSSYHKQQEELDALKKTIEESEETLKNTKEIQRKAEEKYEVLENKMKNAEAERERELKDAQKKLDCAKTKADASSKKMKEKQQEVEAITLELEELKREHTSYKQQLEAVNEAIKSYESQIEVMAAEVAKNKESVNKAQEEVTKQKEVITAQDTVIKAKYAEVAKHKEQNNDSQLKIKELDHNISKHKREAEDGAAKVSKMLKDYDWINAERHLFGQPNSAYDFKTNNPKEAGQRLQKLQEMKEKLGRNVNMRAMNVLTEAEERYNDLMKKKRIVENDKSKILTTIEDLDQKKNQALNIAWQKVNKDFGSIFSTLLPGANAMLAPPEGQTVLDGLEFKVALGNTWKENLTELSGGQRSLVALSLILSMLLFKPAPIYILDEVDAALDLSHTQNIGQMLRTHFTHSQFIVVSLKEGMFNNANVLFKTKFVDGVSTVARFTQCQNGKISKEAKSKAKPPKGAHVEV
T1 sequence (Q9NTJ3 whole entry, chain 2 of 4): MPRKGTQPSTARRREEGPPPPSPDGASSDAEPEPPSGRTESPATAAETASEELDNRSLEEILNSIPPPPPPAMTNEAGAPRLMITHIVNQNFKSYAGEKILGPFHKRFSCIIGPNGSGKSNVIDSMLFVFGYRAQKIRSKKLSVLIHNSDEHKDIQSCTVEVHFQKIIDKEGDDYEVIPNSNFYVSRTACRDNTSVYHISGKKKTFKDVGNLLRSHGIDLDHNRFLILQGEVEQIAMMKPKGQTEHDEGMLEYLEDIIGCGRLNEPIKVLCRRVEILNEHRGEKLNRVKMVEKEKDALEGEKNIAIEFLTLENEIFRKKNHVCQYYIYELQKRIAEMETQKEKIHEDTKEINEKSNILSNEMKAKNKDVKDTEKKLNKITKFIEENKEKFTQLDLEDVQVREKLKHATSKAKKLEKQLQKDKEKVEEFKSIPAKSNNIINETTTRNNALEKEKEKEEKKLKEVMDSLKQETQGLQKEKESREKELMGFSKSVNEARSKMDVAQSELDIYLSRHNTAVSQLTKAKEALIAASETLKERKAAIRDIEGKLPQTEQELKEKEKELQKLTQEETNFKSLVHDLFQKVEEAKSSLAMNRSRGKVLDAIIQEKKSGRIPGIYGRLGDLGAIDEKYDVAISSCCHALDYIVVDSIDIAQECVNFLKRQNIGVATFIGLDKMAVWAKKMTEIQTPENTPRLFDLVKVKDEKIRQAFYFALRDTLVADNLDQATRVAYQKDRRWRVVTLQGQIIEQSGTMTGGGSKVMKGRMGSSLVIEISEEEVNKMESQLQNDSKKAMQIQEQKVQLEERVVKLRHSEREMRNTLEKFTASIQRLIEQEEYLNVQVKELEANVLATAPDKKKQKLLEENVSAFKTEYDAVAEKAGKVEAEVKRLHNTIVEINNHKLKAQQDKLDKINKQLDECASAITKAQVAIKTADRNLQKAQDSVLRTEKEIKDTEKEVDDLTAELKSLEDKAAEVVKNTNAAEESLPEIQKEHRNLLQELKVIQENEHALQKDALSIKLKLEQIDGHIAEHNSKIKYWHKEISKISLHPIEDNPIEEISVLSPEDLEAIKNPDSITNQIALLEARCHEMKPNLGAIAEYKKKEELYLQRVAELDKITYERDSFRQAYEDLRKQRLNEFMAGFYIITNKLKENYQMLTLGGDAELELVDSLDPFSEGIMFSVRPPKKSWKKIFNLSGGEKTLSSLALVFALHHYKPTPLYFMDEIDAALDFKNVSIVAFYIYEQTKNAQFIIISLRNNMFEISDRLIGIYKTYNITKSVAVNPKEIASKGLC
T1 sequence (Q6IBW4 whole entry, chain 3 of 4): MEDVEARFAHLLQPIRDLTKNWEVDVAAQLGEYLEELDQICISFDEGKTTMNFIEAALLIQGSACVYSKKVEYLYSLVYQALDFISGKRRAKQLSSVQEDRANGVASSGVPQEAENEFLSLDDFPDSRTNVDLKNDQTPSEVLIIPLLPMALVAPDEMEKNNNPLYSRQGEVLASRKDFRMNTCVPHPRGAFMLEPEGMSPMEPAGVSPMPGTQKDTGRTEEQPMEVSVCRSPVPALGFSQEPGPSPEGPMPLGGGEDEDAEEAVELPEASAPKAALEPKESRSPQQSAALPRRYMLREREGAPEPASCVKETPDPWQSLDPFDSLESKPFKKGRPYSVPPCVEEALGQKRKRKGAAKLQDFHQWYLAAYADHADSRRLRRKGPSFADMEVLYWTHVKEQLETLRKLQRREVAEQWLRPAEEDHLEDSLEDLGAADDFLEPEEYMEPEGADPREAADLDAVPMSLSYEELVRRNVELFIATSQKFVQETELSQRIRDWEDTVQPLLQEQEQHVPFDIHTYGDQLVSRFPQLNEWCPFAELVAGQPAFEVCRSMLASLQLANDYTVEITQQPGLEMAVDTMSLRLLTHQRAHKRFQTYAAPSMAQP
T1 sequence (P42695 whole entry, chain 4 of 4): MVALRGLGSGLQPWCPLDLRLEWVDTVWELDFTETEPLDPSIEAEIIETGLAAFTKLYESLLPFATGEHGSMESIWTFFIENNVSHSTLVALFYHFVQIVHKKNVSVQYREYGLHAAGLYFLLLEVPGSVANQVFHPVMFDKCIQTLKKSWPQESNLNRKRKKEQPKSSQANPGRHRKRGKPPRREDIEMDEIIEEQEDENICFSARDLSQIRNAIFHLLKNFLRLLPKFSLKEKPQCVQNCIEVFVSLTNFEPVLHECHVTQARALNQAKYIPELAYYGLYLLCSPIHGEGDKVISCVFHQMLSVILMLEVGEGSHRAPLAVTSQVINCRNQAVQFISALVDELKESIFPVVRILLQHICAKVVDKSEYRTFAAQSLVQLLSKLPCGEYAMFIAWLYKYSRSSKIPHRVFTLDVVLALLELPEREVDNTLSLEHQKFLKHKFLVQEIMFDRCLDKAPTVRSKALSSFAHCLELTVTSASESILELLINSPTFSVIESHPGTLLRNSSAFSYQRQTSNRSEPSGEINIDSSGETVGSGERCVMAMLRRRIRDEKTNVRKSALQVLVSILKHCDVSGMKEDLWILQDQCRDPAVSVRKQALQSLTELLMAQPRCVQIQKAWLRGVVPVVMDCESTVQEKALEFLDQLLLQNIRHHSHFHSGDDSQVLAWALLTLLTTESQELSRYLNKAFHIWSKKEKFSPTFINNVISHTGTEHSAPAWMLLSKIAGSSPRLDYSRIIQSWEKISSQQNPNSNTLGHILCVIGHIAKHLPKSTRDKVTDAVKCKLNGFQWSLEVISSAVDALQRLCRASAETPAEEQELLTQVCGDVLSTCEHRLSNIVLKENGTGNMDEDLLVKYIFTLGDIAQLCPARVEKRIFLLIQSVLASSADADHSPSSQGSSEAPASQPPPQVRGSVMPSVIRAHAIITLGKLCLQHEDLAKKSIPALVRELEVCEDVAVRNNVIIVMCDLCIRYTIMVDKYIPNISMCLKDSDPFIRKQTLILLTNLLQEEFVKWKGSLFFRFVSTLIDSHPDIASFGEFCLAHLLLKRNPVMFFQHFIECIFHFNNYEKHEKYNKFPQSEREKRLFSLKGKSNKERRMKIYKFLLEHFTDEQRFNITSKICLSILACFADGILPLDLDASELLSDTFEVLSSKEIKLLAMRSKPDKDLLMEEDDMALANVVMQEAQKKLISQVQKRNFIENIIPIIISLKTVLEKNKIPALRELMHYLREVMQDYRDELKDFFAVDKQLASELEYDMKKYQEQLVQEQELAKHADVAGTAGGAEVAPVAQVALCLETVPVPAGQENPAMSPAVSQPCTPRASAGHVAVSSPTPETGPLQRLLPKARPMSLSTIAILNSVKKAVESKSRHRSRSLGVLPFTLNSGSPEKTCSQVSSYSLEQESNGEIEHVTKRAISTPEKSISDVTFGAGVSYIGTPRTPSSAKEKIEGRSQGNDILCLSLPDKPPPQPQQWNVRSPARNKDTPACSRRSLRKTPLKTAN

[2] = molecular target: T1, human condensin II pentameric complex …; assay: pull-down; strep-tagged full-length MCPH1 and condensin II separately purified, mixed on strep-tactin sepharose; SDS-PAGE, silver stain
[3] = molecular target: T1, human condensin II pentameric complex …; assay: fluorescence polarisation; competition; 0.63 µM condensin II and 0.3 µM 5-FAM peptide fixed, unlabelled peptide in two-fold series; 20 mM Tris pH 7.5, 200 mM NaCl, 1 mM DTT; fit for directly competitive binding
[4] = molecular target: T1, human condensin II pentameric complex …; assay: SEC; complex of condensin II (wild type or Q-loop mutant) with MCPH1_(1-435)MBP purified by gel filtration on Superose 6 10/300 in 20 mM Tris pH 7.5, 150 mM NaCl, 1 mM DTT, for ATPase assays
[5] = molecular target: T2, condensin II with Q-loop mutation (SMC2 Q147L, SMC4 Q229L) (human, UniProt O95347 1-1197; Q9NTJ3 1-1288; Q6IBW4 1-605; P42695 1-1498; Q86XI2 1-1143, SMC2 Q147L | SMC4 Q229L); assay: as above
T2 construct: SMC2, human, Q-loop mutant; SMC4, human, Q-loop mutant; NCAPH2, human; NCAPD3, human; NCAPG2, human; also called ATPase hydrolysis deficient Q-loop mutant condensin II; source: insect cells, purified as previously described (Kong et al., 2020); copies: + + + +
T2 sequence (O95347 whole entry Q147L, chain 1 of 4): as the sequence (O95347 whole entry, chain 1 of 4) above, with Q147L counted along it
T2 sequence (Q9NTJ3 whole entry Q229L, chain 2 of 4): as the sequence (Q9NTJ3 whole entry, chain 2 of 4) above, with Q229L counted along it
T2 sequence (Q6IBW4 whole entry, stated change not applied, chain 3 of 4): as the sequence (Q6IBW4 whole entry, chain 3 of 4) above
T2 sequence (P42695 whole entry, stated change not applied, chain 4 of 4): as the sequence (P42695 whole entry, chain 4 of 4) above

[6] = molecular target: T1, human condensin II pentameric complex …; assay: fluorescence polarisation; direct binding; 0.3 µM 5-FAM peptide, 0.625-5 µM condensin II complex; 20 mM Tris pH 7.5, 200 mM NaCl, 1 mM DTT; room temperature

B1: MBP-MCPH1_(196-435) (domain or fragment, human, UniProt Q8NEM0 196-435, looked up)
chain: QMIQQSHDNPSNSLCEAPLNISRDTLCSDEYFAGGLHSSFDDLCGNSGCGNQERKLEGSINDIKSDVCISSLVLKANNIHSSPSFTHLDKSSPQKFLSNLSKEEINLQRNIAGKVVTPDQKQAAGMSQETFEEKYRLSPTLSSTKGHLLIHSRPRSSSVKRKRVSHGSHSPPKEKCKRKRSTRRSIMPRLQLCRSEDRLQHVAGPALEALSCGESSYDDYFSPDNLKERYSENLPPESQL
notes: source: E. coli BL21 (DE3) pLysS, purified (Ni-NTA, ion exchange or heparin); not shown: MBP, N-terminal, kept
Does B1 bind [1]?
Result: binds

B2: strep-tagged full-length human MCPH1 (natural protein, UniProt Q8NEM0 1-835, looked up)
chain: MAAPILKDVVAYVEVWSSNGTENYSKTFTTQLVDMGAKVSKTFNKQVTHVIFKDGYQSTWDKAQKRGVKLVSVLWVEKCRTAGAHIDESLFPAANMNEHLSSLIKKKRKCMQPKDFNFKTPENDKRFQKKFEKMAKELQRQKTNLDDDVPILLFESNGSLIYTPTIEINSRHHSAMEKRLQEMKEKRENLSPTSSQMIQQSHDNPSNSLCEAPLNISRDTLCSDEYFAGGLHSSFDDLCGNSGCGNQERKLEGSINDIKSDVCISSLVLKANNIHSSPSFTHLDKSSPQKFLSNLSKEEINLQRNIAGKVVTPDQKQAAGMSQETFEEKYRLSPTLSSTKGHLLIHSRPRSSSVKRKRVSHGSHSPPKEKCKRKRSTRRSIMPRLQLCRSEDRLQHVAGPALEALSCGESSYDDYFSPDNLKERYSENLPPESQLPSSPAQLSCRSLSKKERTSIFEMSDFSCVGKKTRTVDITNFTAKTISSPRKTGNGEGRATSSCVTSAPEEALRCCRQAGKEDACPEGNGFSYTIEDPALPKGHDDDLTPLEGSLEEMKEAVGLKSTQNKGTTSKISNSSEGEAQSEHEPCFIVDCNMETSTEEKENLPGGYSGSVKNRPTRHDVLDDSCDGFKDLIKPHEELKKSGRGKKPTRTLVMTSMPSEKQNVVIQVVDKLKGFSIAPDVCETTTHVLSGKPLRTLNVLLGIARGCWVLSYDWVLWSLELGHWISEEPFELSHHFPAAPLCRSECHLSAGPYRGTLFADQPAMFVSPASSPPVAKLCELVHLCGGRVSQVPRQASIVIGPYSGKKKATVKYLSEKWVLDSITQHKVCAPENYLLSQ
notes: MCPH1, human, full length; pLIB MCPH1 from Genscript; also called full-length MCPH1; microcephalin; source: High Five insect cells (baculovirus), purified (StrepTrap, SEC)
Does B2 bind [2]?
Result: binds

CGESSYDDYFSPDNLKER (source: synthetic peptide (Genscript)) [MCPH1_(407-424) peptide, wild-type, unlabelled] was tested. Which Kd [3] did it give?
Its Kd is 5.3 ± 1 µM.

B3: MBP-MCPH1_(348-469) (domain or fragment, human, UniProt Q8NEM0 348-469, looked up)
chain: RPRSSSVKRKRVSHGSHSPPKEKCKRKRSTRRSIMPRLQLCRSEDRLQHVAGPALEALSCGESSYDDYFSPDNLKERYSENLPPESQLPSSPAQLSCRSLSKKERTSIFEMSDFSCVGKKTR
notes: MCPH1, human, residues 348-469; This construct is named in the results only; also called His-MBP-MCPH1 348-469; source: E. coli, purified; not shown: MBP, N-terminal, kept
Does B3 bind [1]?
Result: binds

B4: MCPH1_(1-435)MBP after removal of the N-terminal 6xHis tag (domain or fragment, human, UniProt Q8NEM0 1-435, looked up)
chain: MAAPILKDVVAYVEVWSSNGTENYSKTFTTQLVDMGAKVSKTFNKQVTHVIFKDGYQSTWDKAQKRGVKLVSVLWVEKCRTAGAHIDESLFPAANMNEHLSSLIKKKRKCMQPKDFNFKTPENDKRFQKKFEKMAKELQRQKTNLDDDVPILLFESNGSLIYTPTIEINSRHHSAMEKRLQEMKEKRENLSPTSSQMIQQSHDNPSNSLCEAPLNISRDTLCSDEYFAGGLHSSFDDLCGNSGCGNQERKLEGSINDIKSDVCISSLVLKANNIHSSPSFTHLDKSSPQKFLSNLSKEEINLQRNIAGKVVTPDQKQAAGMSQETFEEKYRLSPTLSSTKGHLLIHSRPRSSSVKRKRVSHGSHSPPKEKCKRKRSTRRSIMPRLQLCRSEDRLQHVAGPALEALSCGESSYDDYFSPDNLKERYSENLPPESQL
notes: Same construct as m11, His tag cut off by TEV before gel filtration with condensin II; source: E. coli BL21 (DE3) pLysS, purified (Ni-NTA, ion exchange or heparin, SEC), treated with TEV protease; not shown: His6, N-terminal, cleaved; MBP, C-terminal, kept
Which results are given for B4?
binding result [4]: binds; binding result [5]: binds

B5: MBP-MCPH1_(1-435) (domain or fragment, human, UniProt Q8NEM0 1-435, looked up)
chain: MAAPILKDVVAYVEVWSSNGTENYSKTFTTQLVDMGAKVSKTFNKQVTHVIFKDGYQSTWDKAQKRGVKLVSVLWVEKCRTAGAHIDESLFPAANMNEHLSSLIKKKRKCMQPKDFNFKTPENDKRFQKKFEKMAKELQRQKTNLDDDVPILLFESNGSLIYTPTIEINSRHHSAMEKRLQEMKEKRENLSPTSSQMIQQSHDNPSNSLCEAPLNISRDTLCSDEYFAGGLHSSFDDLCGNSGCGNQERKLEGSINDIKSDVCISSLVLKANNIHSSPSFTHLDKSSPQKFLSNLSKEEINLQRNIAGKVVTPDQKQAAGMSQETFEEKYRLSPTLSSTKGHLLIHSRPRSSSVKRKRVSHGSHSPPKEKCKRKRSTRRSIMPRLQLCRSEDRLQHVAGPALEALSCGESSYDDYFSPDNLKERYSENLPPESQL
notes: as for B1
Does B5 bind [1]?
Result: binds

B6: MCPH1_(407-424) peptide phosphorylated at serine 417 (peptide)
peptide: CGESSYDDYF[pS]PDNLKER
notes: S417 is phosphoserine; also called MCPH1pS417; source: synthetic peptide (Genscript)
For B6, which Kd [3] is on record?
Its Kd is 53 ± 8 µM.

B7: 5-FAM-labelled MCPH1_(407-424) peptide (peptide)
peptide: {5‑FAM}-CGESSYDDYFSPDNLKER
notes: also called 5FAM-MCPH1; source: synthetic peptide (Genscript)
For B7, which Kd [6] is on record?
The Kd was 0.64 µM.
